The text below walks through data of patent US20180203016A1 (UCB, published 2018).

The target of assay [1] is TNFα (fused trimer) - AVI Tag, biotinylated, in the presence of compound (4). The assay is described as follows: TR-FRET, 7.5 nM proteins, compound (4) up to 25 µM; partial loss of receptor binding. (TR-FRET usually uses a lanthanide donor and a delayed reading to cut background.)
Assay [2] concerns the target TNFα (fused trimer) - AVI Tag, biotinylated, in the presence of compound (3). The assay is described as follows: TR-FRET, 7.5 nM proteins, compound (3) up to 25 µM; partial loss of receptor binding.
Assay [3] addresses T1, soluble form of mouse TNFα (VC 6535) in complex with compound (1) (mouse, UniProt P06804 89-235).
T1 construct: also called murine TNFα; trimer-compound complex
T1 sequence: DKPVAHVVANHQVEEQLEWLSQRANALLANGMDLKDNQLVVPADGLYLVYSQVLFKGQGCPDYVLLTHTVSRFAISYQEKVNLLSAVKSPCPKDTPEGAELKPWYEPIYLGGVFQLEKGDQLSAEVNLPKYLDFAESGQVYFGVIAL
In words: X-ray crystallography, 3.15 Å. The protocol: The final purified ternary complex was concentrated to 18.5 mg/ml and immediately used in crystallization trials.
The ternary complex was crystallized by sitting drop vapor diffusion by mixing 0.5 μl of complex with 0.5 μl of 800 mM sodium potassium tartrate, 0.5% PEG5000 MME, 100 mM Tris pH 8.5 over 100 μl of the same crystallization solution. Crystals were harvested for data collection approximately 2 months after initial set up. They were briefly soaked in paraffin oil and frozen directly in liquid nitrogen for data collection on Aug. 17, 2012 at Argonne Photon Source, beamline 21-IDF.

Assay [4] deals with T2, fused human TNFα trimer in complex with compound (5) (human, UniProt P01375 77-233; P01375 86-233; P01375 86-233, limits assumed).
T2 construct: also called trimer-compound complex
The assay is described as follows: analytical SEC (Superdex 200HR 10/300), Abs 280 nm against retention (CV); 3.5 fold excess of TNFR1 over trimer preincubated with 200 µM compound (5). The protocol:
The final concentration of DMSO was 1.0%. The mixture was incubated for 1 hour at 22° C.

Assay [5] deals with T3, fused human TNFα trimer in complex with compound (2) (human, UniProt P01375 77-233; P01375 86-233; P01375 86-233, limits assumed).
T3 construct: also called trimer-compound complex; compound-trimer complex
In words: analytical SEC (HPLC, TSK G3000SW), Abs 280 nm against retention time; 3.2 fold excess of TNFR1 over fused TNFα trimer preincubated with 90, 240, 465 or 690 µM compound (2) [D00007 Fig. 5(Cont.]. The protocol: The final concentration of DMSO was 0.25%. The mixture was incubated for 1 hour at 22° C.

T2 sequence (P01375 other isoform, or with tags, fused parts or gaps limits assumed): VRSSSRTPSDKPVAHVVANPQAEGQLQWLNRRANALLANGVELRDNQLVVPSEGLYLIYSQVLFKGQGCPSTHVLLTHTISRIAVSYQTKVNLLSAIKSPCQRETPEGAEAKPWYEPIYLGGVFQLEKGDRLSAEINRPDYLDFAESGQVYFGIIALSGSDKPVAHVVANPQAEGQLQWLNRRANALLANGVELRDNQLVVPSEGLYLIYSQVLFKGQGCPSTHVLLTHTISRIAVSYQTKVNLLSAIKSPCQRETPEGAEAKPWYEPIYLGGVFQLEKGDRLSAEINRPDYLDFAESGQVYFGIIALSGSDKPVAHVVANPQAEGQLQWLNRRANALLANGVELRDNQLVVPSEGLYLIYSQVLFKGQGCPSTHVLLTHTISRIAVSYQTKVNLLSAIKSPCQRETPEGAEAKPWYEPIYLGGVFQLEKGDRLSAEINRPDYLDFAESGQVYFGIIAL
T3 sequence (P01375 other isoform, or with tags, fused parts or gaps limits assumed): as above

As to “TNFR1(ECD)-6xLysine-Human single chain Fc, Alexa Fluor 488 conjugated (from UniProt P19438 30-211) (Fc fusion)”, the maximal inhibition of FRET signal is 36% in assay [1] and 29% in assay [2].

B1: extracellular domain of human TNFR1 (VC 5602) (receptor)
chain: GSVCPQGKYIHPQDNSICCTKCHKGTYLYNDCPGPGQDTDCRECESGSFTASENHLRHCLSCSKCRKEMGQVEISSCTVDRDTVCGCRKNQYRHYWSENLFQCFNCSLCLNGTVHLSCQEKQNTVCTCHAGFFLRENECVSSSN
notes: Expressed in baculovirus infected insect cells
On to B1, for which, in assay [3], the binding result is reported as “binds”.

B2: Human TNFR1 (V43-N184)(N54D, C182S) (receptor, UniProt P19438 43-184, looked up)
chain: VCPQGKYIHPQDNSICCTKCHKGTYLYNDCPGPGQDTDCRECESGSFTASENHLRHCLSCSKCRKEMGQVEISSCTVDRDTVCGCRKNQYRHYWSENLFQCFNCSLCLNGTVHLSCQEKQNTVCTCHAGFFLRENECVSSSN
notes: also called receptor
Regarding B2, the binding result in assay [4] and in assay [5] was “binds” throughout.
